Measurements taken from US20210070843A1.

Tests used:
[1] = molecular target: full-length H1 A/California/07/2009 HA expressed on 293T cells (influenza A virus A/California/07/2009 (H1N1)); experiment: flow cytometry, HA-expressing 293T
[2] = molecular target: full-length H5 A/Vietnam/1203/2004 HA expressed on 293T cells (influenza A virus A/Vietnam/1203/2004 (H5N1)); experiment: flow cytometry, HA-expressing 293T
[3] = molecular target: cell surface-expressed H3N2 WN/05 HA trimer (influenza A virus A/Wisconsin/67/2005 (H3N2)); experiment: flow cytometry, HA-expressing 293T
[4] = molecular target: full-length H1 A/California/07/2009 HA expressed on 293T cells (influenza A virus A/California/07/2009 (H1N1)); experiment: cell-based or functional assay
[5] = molecular target: H7 A/Anhui/1-BALF_RG17/2013 HA on H7N9 AH/13 pseudo virus (influenza A virus A/Anhui/1-BALF_RG17/2013 (H7N9)); experiment: cell-based or functional assay
[6] = molecular target: full-length H5 A/Vietnam/1203/2004 HA expressed on 293T cells (influenza A virus A/Vietnam/1203/2004 (H5N1)); experiment: cell-based or functional assay
[7] = molecular target: cell surface-expressed H3N2 WN/05 HA trimer (influenza A virus A/Wisconsin/67/2005 (H3N2)); experiment: cell-based or functional assay

Row | Binder | EC50 [1] [µg/mL] | max. MFI [1] [MFI] | max. MFI [2] [MFI] | max. MFI [3] [MFI] | IC50 of pseudo virus neutralization H1N1 CA/09 [4] [µg/mL] | IC50 of true virus neutralization H1N1 CA/09 [4] [µg/mL] | IC50 of pseudo virus neutralization H7N9 AH/13 [5] [µg/mL] | IC50 of pseudo virus neutralization H5N1 VN/04 [6] [µg/mL] | IC50 of pseudo virus neutralization H3N2 WN/05 [7] [ng/mL] | EC50 [2] [µg/mL] | EC50 [3] [µg/mL]
1 | P47 (antibody, V domains shown) VH: EVQLVESGGGLVQPGGSLRLSCAASGFTIGNSGIHWVRQAPGKGLEWVASIWPSGGSTYYADSVKGRFTISADTSKNTAYLQMNSLRAEDTAVYYCARFGHIDGDIMDYWGQGTLVTVSS VL: DIQMTQSPSSLSASVGDRVTITCRASQDVYYYVAWYQQKPGKAPKLLISGSSYLYSGVPSRFSGSGSGTDFTLTISSLQPEDFATYYCQQYYNWPLTFGQGTKVEIKR | 0.61 | 10200 | 396 | 175 | > 100 | > 500 | > 200 | > 200 | > 20000 | – | –
2 | P10 (antibody, V domains shown) VH: EVQLVESGGGLVQPGGSLRLSCAASGFTIDNSWIHWVRQAPGKGLEWVASIWPFGGYTYYADSVKGRFTISADTSKNTAYLQMNSLRAEDTAVYYCARFGNVFDWYMDYWGQGTLVTVSS VL: DIQMTQSPSSLSASVGDRVTITCRASQDVNSNVAWYQQKPGKAPKLLIYWAGYLYSGVPSRFSGSGSGTDFTLTISSLQPEDFATYYCQQSSDFPITFGQGTKVEIKR | 0.41 | 9660 | 517 | 117 | 0.465 | > 500 | > 200 | > 200 | > 20000 | – | –
3 | P48 (antibody, V domains shown) VH: EVQLVESGGGLVQPGGSLRLSCAASGFTINSWGIHWVRQAPGKGLEWVAGIGPSWGYTSYADSVKGRFTISADTSKNTAYLQMNSLRAEDTAVYYCARFGDGDFDLMDYWGQGTLVTVSS VL: DIQMTQSPSSLSASVGDRVTITCRASQDVWSYVAWYQQKPGKAPKLLISYTSYLYSGVPSRFSGSGSGTDFTLTISSLQPEDFATYYCQQYFNWPITFGQGTKVEIKR | 2.4 | 7860 | 474 | 258 | > 100 | > 500 | > 200 | > 200 | > 20000 | – | –
4 | S51 (antibody, V domains shown) VH: EVQLVESGGGLVQPGGSLRLSCAASGFTIDDWGIHWVRQAPGKGLEWVAWIWPYGGFTSYADSVKGRFTISADTSKNTAYLQMNSLRAEDTAVYYCARFGFVDWNLMDYWGQGTLVTVSS VL: DIQMTQSPSSLSASVGDRVTITCRASQDVWGYVAWYQQKPGKAPKLLISYTTYLYSGVPSRFSGSGSGTDFTLTISSLQPEDFATYYCQQYYNSPVTFGQGTKVEIKR | 0.754 | 6290 | 452 | 340 | > 100 | > 500 | > 200 | > 200 | > 20000 | – | –
5 | S07 (antibody, V domains shown) VH: EVQLVESGGGLVQPGGSLRLSCAASGFTINSSGIHWVRQAPGKGLEWVASIGPSWGSTYYADSVKGRFTISADTSKNTAYLQMNSLRAEDTAVYYCARFGIGDIDVMDYWGQGTLVTVSS VL: DIQMTQSPSSLSASVGDRVTITCRASQDVWGYVAWYQQKPGKAPKLLISYASFLYSGVPSRFSGSGSGTDFTLTISSLQPEDFATYYCQQYFNWPVTFGQGTKVEIKR | 1.61 | 10800 | 863 | 410 | > 100 | > 500 | > 200 | > 200 | > 20000 | 4.98 | 3.71
6 | P28 (antibody, V domains shown) VH: EVQLVESGGGLVQPGGSLRLSCAASGFTINNSGIHWVRQAPGKGLEWVASIWPSGGYTYYADSVKGRFTISADTSKNTAYLQMNSLRAEDTAVYYCARFNSSYSSGLMDYWGQGTLVTVSS VL: DIQMTQSPSSLSASVGDRVTITCRASQDVWYSVAWYQQKPGKAPKLLIYFATGLYSGVPSRFSGSGSGTDFTLTISSLQPEDFATYYCQQYFNWPVTFGQGTKVEIKR | – | 168 | 193 | 127 | > 100 | > 500 | > 200 | > 200 | > 20000 | – | –
7 | P14 (antibody, V domains shown) VH: EVQLVESGGGLVQPGGSLRLSCAASGFTIGDFGIHWVRQAPGKGLEWVAGIWPFGGYTYYADSVKGRFTISADTSKNTAYLQMNSLRAEDTAVYYCARFVNWDGDYMDYWGQGTLVTVSS VL: DIQMTQSPSSLSASVGDRVTITCRASQDVGFYVAWYQQKPGKAPKLLISWSSYLYSGVPSRFSGSGSGTDFTLTISSLQPEDFATYYCQQYYNYPLTFGQGTKVEIKR | 0.125 | 8340 | 328 | 154 | > 100 | 4390 | > 200 | > 200 | > 20000 | – | –
8 | S40 (antibody, V domains shown) VH: EVQLVESGGGLVQPGGSLRLSCAASGFTIGDFGIHWVRQAPGKGLEWVAGIWPFGGYTYYADSVKGRFTISADTSKNTAYLQMNSLRAEDTAVYYCARFVNWDGDYMDYWGQGTLVTVSS VL: DIQMTQSPSSLSASVGDRVTITCRASQDVGFYVAWYQQKPGKAPKLLISWSSYLYSGVPSRFSGSGSGTDFTLTISSLQPEDFATYYCQQYYNYPLTFGQGTKVEIKR | 0.46 | 8630 | 724 | 109 | > 100 | 436 | > 200 | > 200 | > 20000 | 2.85 | –
9 | P38 (antibody, V domains shown) VH: EVQLVESGGGLVQPGGSLRLSCAASGFTINDGGIHWVRQAPGKGLEWVAFIGPYGGSTFYADSVKGRFTISADTSKNTAYLQMNSLRAEDTAVYYCAGFIGDYSSYHGVMDYWGQGTLVTVSS VL: DIQMTQSPSSLSASVGDRVTITCRASQDVWGYVAWYQQKPGKAPKLLISWPGGLYSGVPSRFSGSGSGTDFTLTISSLQPEDFATYYCQQYSSFPLTFGQGTKVEIKR | 3.16 | 988 | 240 | 137 | > 100 | > 500 | > 200 | > 200 | > 20000 | – | –
10 | S01 (antibody, V domains shown) VH: EVQLVESGGGLVQPGGSLRLSCAASGFTINNYGIHWVRQAPGKGLEWVASIWPSGGYTSYADSVKGRFTISADTSKNTAYLQMNSLRAEDTAVYYCARFGLGDYDIMDYWGQGTLVTVSS VL: DIQMTQSPSSLSASVGDRVTITCRASQDVWGYVAWYQQKPGKAPKLLISFPSSLYSGVPSRFSGSGSGTDFTLTISSLQPEDFATYYCQQYYDGPVTFGQGTKVEIKR | 0.384 | 8430 | 306 | 178 | > 100 | > 500 | > 200 | > 200 | > 20000 | – | –
11 | P25 (antibody, V domains shown) VH: EVQLVESGGGLVQPGGSLRLSCAASGFTISNGGIHWVRQAPGKGLEWVAGIGPYGGYTYYADSVKGRFTISADTSKNTAYLQTNSLRAEDTAVYYCARFYGYSGIMDYWGQGTLVTVSS VL: DIQMTQSPSSLSASVGDRVTITCRASQDVWGYVAWYQQKPGKAPKLLISGSRSLYSGVPSRFSGSGSGTDFTLTISSLQPEDFATYYCQQYYNYPITFGQGTKVEIKR | 0.761 | 2380 | 318 | 152 | > 100 | > 500 | > 200 | > 200 | > 20000 | – | –
12 | C05 (antibody, V domains shown) VH: PVQLQESGGGLVQPGESLRLSCVGSGSSFGESTLSYYAVSWVRQAPGKGLEWLSIINAGGGDIDYADSVEGRFTISRDNSKETLYLQMTNLRVEDTGVYYCAKHMSMQQVVSAGWERADLVGDAFDVWGQGTMVTVSS VL: DIQLTQSPSSLSASVGDRVTLTCQASQDIRKFLNWYQQKPGKGPKLLIYDASNLQRGVPSRFSGGGSGTDFTLIISSLQPEDVGTYYCQQYDGLPFTFGGGTKVEIKR | – | 86 | 547 | 14600 | > 100 | > 500 | > 200 | > 200 | 10.2 | – | 0.13
